The target in assay [1] is M. tuberculosis open gate 20S core particle (20SOG CP) (M. tuberculosis) (UniProt P9WHU1). In words: cryo-EM structure.
In assay [2] the target is Mpa_(C-EXT) (mycobacterial proteasome ATPase Mpa with a GGGGS linker inserted between Thr601 and Glu (M. tuberculosis) (UniProt P9WQN5)). In words: cryo-EM structure.

Where “and” joins values, the source holds several entries; their conditions need not be identical. Equal values may be shown once.

“Mpa_(C-EXT) (mycobacterial proteasome ATPase Mpa with a GGGGS linker inserted between Thr601 and Glu (from UniProt P9WQN5 1-609) (enzyme)”: the percent of 20SOG CPs complexed in assay [1] is 50% and 40%. The substance also had a stoichiometry N in assay [2] of 6.

What is called stoichiometry N is the number of molecules, sites or subunits per partner or assembly.

Source of the values: PMC9599533.
